The RNAGym collection of RNA variant scans (doi:10.7554/elife.80360)

B1: Hairpin Ribozyme (parent)
chain: GUCCUCUUUCACGUGCGCGUGAAAGAGAGAAGUGAACCAGAGAAACACACGUUGUGGUAUAUUACCUGGUA

Variants of: B1
Assay: self-cleavage, relative activity (ratio to wild type); higher = more cleavage; co-transcriptional

In order of falling self-cleavage:
1. GUCCUCUUUCACGUGCGCGUGAAAGAGAGAAGUGAACCAGAGAAACACACGUUGGGGUAUAUUACUUGGUA [U55G C66U]  0.422
2. GUCCUCUUUCACGUGCGCGUGAAAGAGAGAAGUGAACCAGAGAAACACACGUUGUUGUAUAUUAUCUGGUA [G56U C65U]  0.276
3. GUCCUCUUUCACGUGCGCGUGAAAGAGAGAAGUGAACCAGAGAAACACACGUUGUCGUAUAAUACCUGGUA [G56C U62A]  0.263
4. GUCCUCUUUCACGUGCGCGUGAAAGAGAGAAGUGAACCAGAGAAACACACGUUGGGGUAUAUUACCUGCUA [U55G G69C]  0.257
5. GUCCUCUUUCACGUGCGCGUGAAAGAGAGAAGUGAACCAGAGAAACACACGUUGUAGUAUAUUACCUGGCA [G56A U70C]  0.247
6. GUCCUCUUUCACGUGCGCGUGAAAGAGAGAAGUGAACCAGAGAAACACACGUUGUCGGAUAUUACCUGGUA [G56C U58G]  0.234
7. GUCCUCUUUCACGUGCGCGUGAAAGAGAGAAGUGAACCAGAGAAACACACGUUGUGAUAUAUUAUCUGGUA [G57A C65U]  0.231
8. GUCCUCUUUCACGUGCGCGUGAAAGAGAGAAGUGAACCAGAGAAACACACGUUGUAGUAUAUUACCUGGAA [G56A U70A]  0.223
9. GUCCUCUUUCACGUGCGCGUGAAAGAGAGAAGUGAACCAGAGAAACACACGUUGUGAUAUAUUACAUGGUA [G57A C66A]  0.215
10. GUCCUCUUUCACGUGCGCGUGAAAGAGAGAAGUGAACCAGAGAAACACACGUUGUGAUACAUUACCUGGUA [G57A U60C]  0.205
11. GUCCUCUUUCACGUGCGCGUGAAAGAGAGAAGUGAACCAGAGAAACACACGUUGUUGUAUAUUAACUGGUA [G56U C65A]  0.203
12. GUCCUCUUUCACGUGCGCGUGAAAGAGAGAAGUGAACCAGAGAAACACACGUUGGGGAAUAUUACCUGGUA [U55G U58A]  0.199
13. GUCCUCUUUCACGUGCGCGUGAAAGAGAGAAGUGAACCAGAGAAACACACGUUGCGGUAUAUUACCUGGCA [U55C U70C]  0.195
14. GUCCUCUUUCACGUGCGCGUGAAAGAGAGAAGUGAACCAGAGAAACACACGUUGUGAUAUAUUACCUGGUU [G57A A71U]  0.187
15. GUCCUCUUUCACGUGCGCGUGAAAGAGAGAAGUGAACCAGAGAAACACACGUUGUAGUAGAUUACCUGGUA [G56A U60G]  0.186
16. GUCCUCUUUCACGUGCGCGUGAAAGAGAGAAGUGAACCAGAGAAACACACGUUGUGAUAUAUGACCUGGUA [G57A U63G]  0.182
17. GUCCUCUUUCACGUGCGCGUGAAAGAGAGAAGUGAACCAGAGAAACACACGUUGUGCUAUAUUCCCUGGUA [G57C A64C]  0.178
18. GUCCUCUUUCACGUGCGCGUGAAAGAGAGAAGUGAACCAGAGAAACACACGUUGUUGUAUGUUACCUGGUA [G56U A61G]  0.178
19. GUCCUCUUUCACGUGCGCGUGAAAGAGAGAAGUGAACCAGAGAAACACACGUUGUCGUAUUUUACCUGGUA [G56C A61U]  0.177
20. GUCCUCUUUCACGUGCGCGUGAAAGAGAGAAGUGAACCAGAGAAACACACGUUGCGGGAUAUUACCUGGUA [U55C U58G]  0.175
21. GUCCUCUUUCACGUGCGCGUGAAAGAGAGAAGUGAACCAGAGAAACACACGUUGUCGUAUAUUACCUUGUA [G56C G68U]  0.173
22. GUCCUCUUUCACGUGCGCGUGAAAGAGAGAAGUGAACCAGAGAAACACACGUUGUUGUAUAUUUCCUGGUA [G56U A64U]  0.173
23. GUCCUCUUUCACGUGCGCGUGAAAGAGAGAAGUGAACCAGAGAAACACACGUUGUAGUAUUUUACCUGGUA [G56A A61U]  0.166
24. GUCCUCUUUCACGUGCGCGUGAAAGAGAGAAGUGAACCAGAGAAACACACGUUGGGGUAUAUUUCCUGGUA [U55G A64U]  0.158
25. GUCCUCUUUCACGUGCGCGUGAAAGAGAGAAGUGAACCAGAGAAACACACGUUGGGGUAUAUUCCCUGGUA [U55G A64C]  0.153
26. GUCCUCUUUCACGUGCGCGUGAAAGAGAGAAGUGAACCAGAGAAACACACGUUGUGAUAUAUCACCUGGUA [G57A U63C]  0.151
27. GUCCUCUUUCACGUGCGCGUGAAAGAGAGAAGUGAACCAGAGAAACACACGUUGCGGUAUAUUACCUGGAA [U55C U70A]  0.143
28. GUCCUCUUUCACGUGCGCGUGAAAGAGAGAAGUGAACCAGAGAAACACACGUUGUAAUAUAUUACCUGGUA [G56A G57A]  0.136
29. GUCCUCUUUCACGUGCGCGUGAAAGAGAGAAGUGAACCAGAGAAACACACGUUGUUGUAUCUUACCUGGUA [G56U A61C]  0.134
30. GUCCUCUUUCACGUGCGCGUGAAAGAGAGAAGUGAACCAGAGAAACACACGUUGUAGUAUAUAACCUGGUA [G56A U63A]  0.133
31. GUCCUCUUUCACGUGCGCGUGAAAGAGAGAAGUGAACCAGAGAAACACACGUUGUACUAUAUUACCUGGUA [G56A G57C]  0.128
32. GUCCUCUUUCACGUGCGCGUGAAAGAGAGAAGUGAACCAGAGAAACACACGUUGUAGUUUAUUACCUGGUA [G56A A59U]  0.125
33. GUCCUCUUUCACGUGCGCGUGAAAGAGAGAAGUGAACCAGAGAAACACACGUUGUCGUAUAUUACCUGGUU [G56C A71U]  0.119
34. GUCCUCUUUCACGUGCGCGUGAAAGAGAGAAGUGAACCAGAGAAACACACGUUGUGAUAUAUUACCUAGUA [G57A G68A]  0.119
35. GUCCUCUUUCACGUGCGCGUGAAAGAGAGAAGUGAACCAGAGAAACACACGUUGUAGUAUAUUACCUGCUA [G56A G69C]  0.108
36. GUCCUCUUUCACGUGCGCGUGAAAGAGAGAAGUGAACCAGAGAAACACACGUUGUUGUAUAUUAGCUGGUA [G56U C65G]  0.104
37. GUCCUCUUUCACGUGCGCGUGAAAGAGAGAAGUGAACCAGAGAAACACACGUUGUGCUAUAUUACUUGGUA [G57C C66U]  0.101
38. GUCCUCUUUCACGUGCGCGUGAAAGAGAGAAGUGAACCAGAGAAACACACGUUGUGCUAUAUUAACUGGUA [G57C C65A]  0.0756
